In publication PMC5680296, “Tsg101 chaperone function revealed by HIV-1 assembly inhibitors” (Nature Communications, 2017):

T1: Tsg101 UEV-N16 complex (UEV domain with N16 covalently attached at C73) (human, UniProt Q99816 2-145, C73 covalently attached (disulfide linkage) to the activated sulfenamide form of N16 (tenatoprazole))
T1 construct: non-native glycine at the N-terminus (residue 1) left by TEV protease cleavage; Tsg101, ubiquitin E2 variant (UEV) domain, residues 2-145, as m1; same polypeptide as m1; also called N16-Tsg101 UEV complex; Tsg101-N16; source: E. coli Rosetta 2 (DE3) pLysS, purified as m1, then incubated with N16 in a 10:1 ratio (N16 excess); not shown: His6, N-terminal, cleaved
T1 sequence: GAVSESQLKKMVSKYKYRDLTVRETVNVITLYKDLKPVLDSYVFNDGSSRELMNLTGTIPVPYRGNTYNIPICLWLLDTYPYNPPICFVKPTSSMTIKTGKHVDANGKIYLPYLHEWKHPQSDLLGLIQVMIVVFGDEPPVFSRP

B1: PTAP peptide (Ace-NFLQSRPEPTAPPEE-CONH2) (peptide)
peptide: Ac-NFLQSRPEPTAPPEE-NH2
notes: also called Gag PTAP peptide; source: synthetic peptide (Bio-Synthesis, Texas)
B2: Tsg101 UEV domain (residues 2–145) (domain or fragment, human)
chain: T1 sequence
notes: non-native glycine at the N-terminus (residue 1) left by TEV protease cleavage; Tsg101, ubiquitin E2 variant (UEV) domain, residues 2-145; the word human is printed for the full-length Tsg101 plasmids, not for this construct itself; also called Tsg101^2–145; 15N-Tsg101 UEV; not shown: His6, N-terminal, cleaved

Tests used:
Details in all cases: both partners purified
[1] = target: B2; assay: NMR titration; chemical shift perturbations of 15N-labelled Tsg101 UEV or UEV-N16 (200 μM) on addition of PTAP peptide at a final 1:1 ratio; 20 mM potassium phosphate, 50 mM NaCl, pH 5.8
[2] = target: T1, Tsg101 UEV-N16 complex (UEV domain with …); assay: as above
wild-type ubiquitin = target: T2, wild-type ubiquitin (UniProt P0CG48 1-76); assay: NMR titration; HSQC spectra of 15N-labelled Tsg101 UEV or UEV-N16 (200 μM) at 1:0, 1:0.5 and 1:1 ratio to unlabeled ubiquitin; 20 mM potassium phosphate, 50 mM NaCl, pH 5.8
T2 construct: ubiquitin, wild type, unlabeled, encoded in pET-21a; source: E. coli BL21-Gold(DE3), purified (acid precipitation, HiTrap SP ion exchange, S75 gel filtration)

Row | Binder | binding result [1] | binding result [2] | binding result (wild-type ubiquitin)
1 | B1 | binds | binds | –
2 | B2 | – | – | binds
